Key:
Assay in all cases: pull-down binding Z-score (relative to library population); higher = stronger binding
[1] = test system: G-clamp-N3 (biotin conjugate); conditions: RNA library: Library-1 (pre-miRNA loops + repeats)
Procedure, shortened: (§1)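 An RNA library (1 μg) carrying a Cy5 or Cy3 end label was heat-folded in phosphate/NaCl/KCl buffer, then incubated for 60 min at 25 °C with streptavidin beads loaded with 100 pmol of biotin-conjugated small molecule. The beads were washed three times, and bound RNA was released in hot SDS and hybridised to a DNA barcode microarray for 20 h at 55.5 °C. Each binding score was derived by subtracting the signal from beads without compound, averaging the barcoded replicate probes after removing the highest and lowest, and expressing the result as a Z-score relative to the library mean and standard deviation.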

[2] = test system: TO-3-N3 (biotin conjugate); conditions: RNA library: Library-2
Procedure, shortened: as §1

[3] = test system: TO-3-N3-2 (biotin conjugate); conditions: RNA library: Library-2
Procedure, shortened: as §1

TO-N3 (biotin conjugate) = conditions: RNA library: Library-2
Procedure, shortened: as §1

[4] = test system: TO-N3-2 (biotin conjugate); conditions: RNA library: Library-2
Procedure, shortened: as §1

Sequence	pull-down binding Z-score [1]	pull-down binding Z-score [2]	pull-down binding Z-score [3]	pull-down binding Z-score (TO-N3 (biotin conjugate))	pull-down binding Z-score [4]
CUAUGGCCCCCCUCCUCUCUGAAAGCAAGGCCACUUG [hsa-mir-8081]	-1.13	0.3	0.282	0.738	0.982
CUAUUCAGAAAUGUGGCCUGUGAUUAG [hsa-mir-1295a]	0.22	-0.00311	0.231	-0.0755	0.169
CUCAACUCUUGGUCCUCUGAG [hsa-mir-3165]	-0.955	-0.385	0.0789	-0.316	0.545
CUCAAGUCCUCUAUUUCUUUGAA [hsa-mir-7978]	-1.16	-0.712	-0.54	-0.484	0.0517
CUCAAUGUAGUCUUGUAAGGAACAGGUUGAAG [hsa-mir-595]	0.711	-0.166	0.34	0.268	0.908
CUCACAUGGAGUAAAAUAUGAU [hsa-mir-3134]	-1.71	0.744	0.194	0.711	0.206
CUCACCAUAGUGGUGGA [hsa-mir-1288]	-1.2	-0.33	-0.646	-0.412	-0.588
CUCACGUGUGCCUGCCUGUGAG [hsa-mir-339]	-0.747	-1.01	-0.521	-0.555	1.55
CUCACUGCAGAAUUAUUUUGAG [hsa-mir-4524a]	0.934	-0.62	-0.267	-0.869	-0.99
CUCAGAGGGCUGAAGUGGUUGUGGGGAGGGGCUUCUGGG [hsa-mir-4296]	1.39	4.7	4.91	4.83	4.01
CUCAGCAUGUUGAGCCCUGUCUCUGGGGAGCUGAC [hsa-mir-6505]	1.48	0.254	-0.142	0.597	0.878
CUCAGCCUGGAAAAAGCUGAG [hsa-mir-4765]	0.49	-0.454	-0.575	-0.672	-0.646
CUCAGGAAUUGGAUAAGCUUUUCUGAG [hsa-mir-5194]	0.541	-0.212	-0.272	-0.399	-0.323
CUCAGGACAGCGGGUGUCAGCUUGCCUGAC [hsa-mir-6859-1_6859-3_6859-2_6859-4]	-0.377	0.665	0.241	1.12	1.4
CUCAUGAUAUGUUUGCCCCAUCAGCGUGUCACGAG [hsa-mir-3616]	0.251	-0.104	-0.139	-0.0894	0.199
CUCAUGUAAACUAAAACAUGAU [hsa-mir-508]	-1.91	0.0647	-0.244	-0.229	-0.891
CUCAUUGUUGAAUGGAAUGAGAU [hsa-mir-3145]	2.58	-0.527	-0.319	-0.571	0.348
CUCCGGGUUGGGG [hsa-mir-1469]	0.177	-0.552	-0.476	-0.718	-0.557
CUCCUAUUGAAAAUGAACAGGAG [hsa-mir-873]	-0.315	-0.0676	-0.299	-0.285	-0.875

Sequence	pull-down binding Z-score [1]	pull-down binding Z-score [2]	pull-down binding Z-score [3]	pull-down binding Z-score (TO-N3 (biotin conjugate))	pull-down binding Z-score [4]
CUCCUCCGCUGCCGCCGGGAGAG [hsa-mir-4785]	0.0193	-0.584	-0.327	-0.794	0.0312
CUCGCUGGGAGGUGUGCUAUCGUCUUCCCCGGGAG [hsa-mir-3689d-1]	0.293	-0.0907	-0.13	0.154	0.734
CUCGCUGGGAGGUGUGCUAUCGUCUUCCCUGGGAG [hsa-mir-3689d-2]	-0.351	0.157	-0.246	0.338	0.541
CUCGGCCAUCCUCCGUCUGCCCAG [hsa-mir-935]	-1.08	-0.0566	0.13	0.473	1.16
CUCGGGAGGCUGAG [hsa-mir-4419a]	1.91	-0.569	-0.459	-0.51	0.147
CUCGGGUGGAUAAGUCUGAUCUGAG [hsa-mir-3663]	1.2	-0.724	-0.631	-0.554	0.26
CUCGUCUCUACAAAAAAUUGAGACAGG [hsa-mir-4512]	-0.338	0.00896	-0.15	-0.152	-0.632
CUCUAGACUCUAUUAUAGUUUCCUGAG [hsa-mir-558]	-1.03	-0.335	-0.582	-0.751	-0.545
CUCUCCUCCAGCUCAGCUGGUCAGGAGAG [hsa-mir-3160-1]	-0.259	1.09	-0.0211	0.959	-0.0869
CUCUCCUGACCAGCUGAGCUGGAGGAGAG [hsa-mir-3160-2]	1.35	-0.0412	-0.397	-0.48	-1.08
CUCUCGUGUCCACUAGCAGGCAGGUUUUCUGACACAGG [hsa-mir-604]	0.743	-0.343	0.313	-0.0789	0.566
CUCUCUGUUGCUCUGAAGGAG [hsa-mir-346]	1.39	-0.271	-0.318	-0.183	0.295
CUCUGAUGUAAUUAGGU [hsa-mir-563]	-1.2	-0.504	-0.321	-0.642	-0.397
CUCUGCUGUGUAAAUAGUUCUGAGUAGU [hsa-mir-454]	-0.424	-0.17	0.0557	0.186	0.574
CUCUGGUCAGUUGGGAGUCUGAG [hsa-mir-143]	0.448	-0.346	-0.014	-0.0514	0.949
CUCUGGUCUAUAAUGGGUUAAAUAGUAGAG [hsa-mir-609]	0.305	-0.334	0.234	-0.191	0.131
CUCUGUAGUUUUCUUAUAGUG [hsa-mir-644a]	-0.255	-0.635	-0.532	-0.566	-0.669
CUCUUGAUAGCAGACAU [hsa-mir-4775]	-0.839	-0.326	0.14	-0.14	0.291

Reference: the supplement of paper PMC11865577
